Test results: publication PMC7473305 (Frontiers in Immunology, 2020)

Columns and labels:
[1] = molecular target: T1, cynomolgus macaque IL-17F (Macaca fascicularis, UniProt G7P4V0); assay: SPR; Biacore T200, CM5 chip; IgG1 captured by F(ab')2 fragment-specific or Fcγ-specific goat anti-human IgG F(ab')2; cytokine titrated over it (10 nM IL-17F or 5 nM IL-17A and IL-17A/F downwards); HBS-EP pH 7.4, 25°C; settings: both partners purified
T1 construct: interleukin-17F, cynomolgus macaque; source: generated at UCB

[2] = molecular target: T2, cynomolgus macaque IL-17A (Macaca fascicularis, UniProt A0A2K5TTB0); assay: as above; settings: both partners purified
T2 construct: interleukin-17A, cynomolgus macaque; source: generated at UCB

[3] = molecular target: T3, human IL-17A (generated at UCB) (Homo sapiens, UniProt Q16552); assay: cell-based or functional assay
[4] = molecular target: human IL-17A/F heterodimer (Homo sapiens, UniProt Q16552;Q96PD4); assay: cell-based or functional assay
[5] = molecular target: T4, human IL-17F (R&D Systems) (Homo sapiens, UniProt Q96PD4); assay: cell-based or functional assay
[6] = molecular target: T3, human IL-17A (generated at UCB); assay: SPR; Biacore T200, CM5 chip; Fab captured on immobilised anti-human F(ab')2; cytokine titrated over it; HBS-EP pH 7.4, 25°C; settings: both partners purified
[7] = molecular target: T4, human IL-17F (R&D Systems); assay: as above; settings: both partners purified

T3 sequence (Q16552 24-155): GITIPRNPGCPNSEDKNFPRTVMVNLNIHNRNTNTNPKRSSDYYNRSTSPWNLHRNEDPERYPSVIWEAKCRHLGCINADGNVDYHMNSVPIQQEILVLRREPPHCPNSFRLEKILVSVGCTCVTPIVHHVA
T4 sequence (Q96PD4 31-163): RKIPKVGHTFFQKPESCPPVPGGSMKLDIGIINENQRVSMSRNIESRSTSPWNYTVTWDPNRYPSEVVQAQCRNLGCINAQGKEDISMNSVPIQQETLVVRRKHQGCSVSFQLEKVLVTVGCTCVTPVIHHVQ
Chain of human IL-17A/F heterodimer (Q16552 24-155, chain 1 of 2): as the sequence (Q16552 24-155) above
Chain of human IL-17A/F heterodimer (Q96PD4 31-163, chain 2 of 2): as the sequence (Q96PD4 31-163) above

| Binder | Kd [1] [pM] | Kd [2] [pM] | IC50 of neutralization of IL-17A (1 ng/mL, with TNF 1 ng/mL): IL-6 production by NHDFs [3] [µg/mL] | IC50 of neutralization of IL-17A/F (30 ng/mL, with TNF 1 ng/mL): IL-6 production by NHDFs [4] [µg/mL] | IC50 of neutralization of IL-17F (30 ng/mL, with TNF 1 ng/mL): IL-6 production by NHDFs [5] [µg/mL] | Kd [6] [pM] | Kd [7] [pM] |
| --- | --- | --- | --- | --- | --- | --- | --- |
| 496.g3 IgG1 (bimekizumab) (antibody, V domains shown) VH: EVQLVESGGGLVQPGGSLRLSCAASGFTFSDYNMAWVRQAPGKGLEWVATITYEGRNTYYRDSVKGRFTISRDNAKNSLYLQMNSLRAEDTAVYYCASPPQYYEGSIYRLWFAHWGQGTLVTVSS VL: AIQLTQSPSSLSASVGDRVTITCRADESVRTLMHWYQQKPGKAPKLLIYLVSNSEIGVPDRFSGSGSGTDFRLTISSLQPEDFATYYCQQTWSDPWTFGQGTKVEIK | 345 | 12.3 | 0.0004 | 0.0489 | 0.0321 |  |  |
| 496.g1 Fab (Fab, V domains shown) VH: EVQLVESGGGLVQPGGSLRLSCAASGFTFSDYNMAWVRQAPGKGLEWVATITYEGRNTYYRDSVKGRFTISRDNAKNSLYLQMNSLRAEDTAVYYCASPPQYYEGSIYRLWFAHWGQGTLVTVSS VL: AIQLTQSPSSLSASVGDRVTITCRADESVTTLMHWYQQKPGKAPKLLIYLVSNRESGVPSRFSGSGSGTDFTLTISSLQPEDFATYYCQQTWSDPWTFGQGTKVEIK |  |  |  |  |  | 29.2 | 1510 |
| 496.g3 Fab (Fab, V domains shown) VH: EVQLVESGGGLVQPGGSLRLSCAASGFTFSDYNMAWVRQAPGKGLEWVATITYEGRNTYYRDSVKGRFTISRDNAKNSLYLQMNSLRAEDTAVYYCASPPQYYEGSIYRLWFAHWGQGTLVTVSS VL: AIQLTQSPSSLSASVGDRVTITCRADESVRTLMHWYQQKPGKAPKLLIYLVSNSEIGVPDRFSGSGSGTDFRLTISSLQPEDFATYYCQQTWSDPWTFGQGTKVEIK |  |  |  |  |  | 7.2 |  |
